Positions of bridges follow the written chain, without caps; N, C: chain ends. No end group written: not given here.
T1: human SETD3 histidine methyltransferase (human, UniProt Q86TU7 1-594)
T1 sequence (looked up): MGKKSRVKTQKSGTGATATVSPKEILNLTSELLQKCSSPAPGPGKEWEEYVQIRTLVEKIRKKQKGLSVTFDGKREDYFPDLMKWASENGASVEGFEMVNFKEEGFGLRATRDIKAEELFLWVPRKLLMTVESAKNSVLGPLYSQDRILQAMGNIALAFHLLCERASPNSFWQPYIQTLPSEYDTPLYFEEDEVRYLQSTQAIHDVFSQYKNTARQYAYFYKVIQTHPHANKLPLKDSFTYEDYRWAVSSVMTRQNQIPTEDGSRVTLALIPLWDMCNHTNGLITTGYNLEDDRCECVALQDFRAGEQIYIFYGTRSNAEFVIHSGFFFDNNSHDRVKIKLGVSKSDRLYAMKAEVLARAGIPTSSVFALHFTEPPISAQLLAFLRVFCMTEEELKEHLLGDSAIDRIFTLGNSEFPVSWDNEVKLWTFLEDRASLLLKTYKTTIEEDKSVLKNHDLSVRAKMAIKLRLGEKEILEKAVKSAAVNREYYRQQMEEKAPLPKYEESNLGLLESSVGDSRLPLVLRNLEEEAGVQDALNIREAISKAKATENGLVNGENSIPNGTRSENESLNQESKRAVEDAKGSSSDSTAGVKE

B1: linear β-actin peptide (βA-H73, natural sequence) (peptide)
chain: TLKYPIEHGIVTNWDD-NH2
B2: stapled βA peptide 9 (cyclic lactam, Glu72-Lys75) (peptide)
chain: TLKYPIEHGKVTNWDD-NH2
modifications: lactam 7-10

Columns and labels:
[1] = target: T1, human SETD3 histidine methyltransferase; assay: cell-based or functional assay
[2] = target: T1, human SETD3 histidine methyltransferase; assay: ITC; βA peptides (700-850 µM) titrated into SETD3 (30 µM) preincubated with SAH (350 µM) for 1 h; 20 mM Tris, 200 mM NaCl, pH 8.0; MicroCal PEAQ-ITC; One Set of Sites model; conditions: both partners purified
[3] = target: T1, human SETD3 histidine methyltransferase; assay: cell-based or functional assay; remark: listed apart in the source

Binder | kcat of SETD3-catalysed methylation, MALDI-TOF MS steady-state kinetics (200 nM SETD3, 100 µM SAM, pH 9.0, 37 °C) [1] | kcat/Km of SETD3-catalysed methylation, MALDI-TOF MS steady-state kinetics (200 nM SETD3, 100 µM SAM, pH 9.0, 37 °C) [1] | Kd [2] | IC50 of inhibition of SETD3-catalysed methylation of the βA-H73 peptide, MALDI-TOF MS single point assay (10 and 100 µM peptide, 360 nM SETD3, 100 µM SAM) [3]
B1 | 148 min^-1 | 5.78 µM^-1min^-1 | 2.46 µM | 
B2 |  |  | 24 µM | > 100 µM

Source: publication PMC11531485, “Examining prestructured β-actin peptides as substrates of histidine methyltransferase SETD3” (Scientific Reports, 2024)
